The results in this text go back to publication PMC4932919, “Structural and functional studies of the glycoside hydrolase family 3 β-glucosidase Cel3A from the moderately thermophilic fungus Rasamsonia emersonii” (Acta Crystallographica. Section D, Structural Biology, 2016).

For one series, the target named is T1, HjCel3A (Trichoderma reesei, UniProt Q12715).
T1 construct: gene bgl1
T1 sequence (Q12715 20-744): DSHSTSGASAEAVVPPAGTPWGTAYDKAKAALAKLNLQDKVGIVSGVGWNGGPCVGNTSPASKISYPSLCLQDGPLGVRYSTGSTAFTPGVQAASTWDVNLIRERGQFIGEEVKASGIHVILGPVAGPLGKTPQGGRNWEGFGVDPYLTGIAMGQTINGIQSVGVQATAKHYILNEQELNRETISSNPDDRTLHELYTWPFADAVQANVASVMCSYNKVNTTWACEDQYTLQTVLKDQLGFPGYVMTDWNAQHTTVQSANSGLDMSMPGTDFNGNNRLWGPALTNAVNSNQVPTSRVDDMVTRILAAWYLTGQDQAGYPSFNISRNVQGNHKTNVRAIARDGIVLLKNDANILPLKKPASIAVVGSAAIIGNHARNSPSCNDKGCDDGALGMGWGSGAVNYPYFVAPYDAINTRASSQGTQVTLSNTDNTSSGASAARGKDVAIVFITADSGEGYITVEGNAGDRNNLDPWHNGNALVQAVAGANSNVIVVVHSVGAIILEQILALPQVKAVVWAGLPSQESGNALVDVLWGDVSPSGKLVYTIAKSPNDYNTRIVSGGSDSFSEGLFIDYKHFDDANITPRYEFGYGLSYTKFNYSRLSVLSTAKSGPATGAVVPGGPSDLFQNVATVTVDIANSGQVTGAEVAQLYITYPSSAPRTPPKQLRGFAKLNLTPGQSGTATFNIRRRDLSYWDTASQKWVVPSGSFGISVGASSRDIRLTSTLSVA
The experiment in a line: differential scanning calorimetry. The settings on record: 1000 µM; 1 mM glucose; 10 mM sodium acetate pH 5.0; Tm without glucose 77.6 °C; scan rate 200°C/h; irreversible unfolding. It is filed as binding. From the text: differential scanning calorimetry on HjCel3A
In general terms: In DSC, transitions show as peaks or steps in heat flow.

Series [1] concerns the target β-glucosidase Cel3A from Rasamsonia emersonii (Rasamsonia emersonii). Nature of the series: SEC; gel-filtration characterization of purified ReCel3A; conditions of this run not told. Background: In gel filtration, larger molecules generally elute earlier.
Substrate in series [2]: O=[N+]([O-])c1ccc(O[C@@H]2O[C@H](CO)[C@@H](O)[C@H](O)[C@H]2O)cc1
The experiment in a line: purified protein. The settings on record: 100 mM phosphate pH 5.0, 37°C.

Substrate in series [3]: O=[N+]([O-])c1ccc(O[C@@H]2OC[C@@H](O)[C@H](O)[C@H]2O)c(Cl)c1
Nature of the series: chromogenic substrate kinetics (method for CNPX not described). In kind it is biochemical, Rasamsonia emersonii. The settings on record: conditions for CNPX not stated, other chromogenic substrates pH 5.0, 37°C.

Substrate in series [4]: O=[N+]([O-])c1ccc(O[C@@H]2O[C@H](CO)[C@@H](O)[C@H](O)[C@H]2O)c(Cl)c1
Nature of the series: purified protein. In kind it is biochemical, Rasamsonia emersonii. The settings on record: 100 mM phosphate pH 5.0, 37°C.

As for `OC[C@H]1OC(O)[C@H](O)[C@@H](O)[C@@H]1O` (some centres unmarked) [glucose], at HjCel3A, the “T m (°C)” value came to 79.0 °C.

As usually defined, the stoichiometry N is the number of molecules, sites or subunits per partner or assembly. The molecule “β-glucosidase Cel3A from Rasamsonia emersonii (enzyme)” showed a stoichiometry N in series [1] of 2.

B1: ReCel3A (Rasamsonia emersonii) (protein)
chain: NLAYSPPFYPSPWANGQGDWAEAYQKAVQFVSQLTLAEKVNLTTGTGWEQDRCVGQVGSIPRLGFPGLCMQDSPLGVRDTDYNSAFPAGVNVAATWDRNLAYRRGVAMGEEHRGKGVDVQLGPVAGPLGRSPDAGRNWEGFAPDPVLTGNMMASTIQGIQDAGVIACAKHFILYEQEHFRQGAQDGYDISDSISANADDKTMHELYLWPFADAVRAGVGSVMCSYNQVNNSYACSNSYTMNKLLKSELGFQGFVMTDWGGHHSGVGSALAGLDMSMPGDIAFDSGTSFWGTNLTVAVLNGSIPEWRVDDMAVRIMSAYYKVGRDRYSVPINFDSWTLDTYGPEHYAVGQGQTKINEHVDVRGNHAEIIHEIGAASAVLLKNKGGLPLTGTERFVGVFGKDAGSNPWGVNGCSDRGCDNGTLAMGWGSGTANFPYLVTPEQAIQREVLSRNGTFTGITDNGALAEMAAAASQADTCLVFANADSGEGYITVDGNEGDRKNLTLWQGADQVIHNVSANCNNTVVVLHTVGPVLIDDWYDHPNVTAILWAGLPGQESGNSLVDVLYGRVNPGKTPFTWGRARDDYGAPLIVKPNNGKGAPQQDFTEGIFIDYRRFDKYNITPIYEFGFGLSYTTFEFSQLNVQPINAPPYTPASGFTKAAQSFGQPSNASDNLYPSDIERVPLYIYPWLNSTDLKASANDPDYGLPTEKYVPPNATNGDPQPIDPAGGAPGGNPSLYEPVARVTTIITNTGKVTGDEVPQLYVSLGGPDDAPKVLRGFDRITLAPGQQYLWTTTLTRRDISNWDPVTQNWVVTNYTKTIYVGNSSRNLPLQAPLKPYPGI
notes: secreted mature protein, signal peptide 1-20 removed; codon-optimized gene expressed in Hypocrea jecorina RL-P37 derivative with four cellulases deleted; no tag; N-glycosylated; dimer in solution; visible residues Asp21-Pro855
The term Km denotes the substrate concentration at which the rate is half of its maximum. Usually kcat stands for the maximal rate divided by the concentration of active sites. A word on the kcat/Km: it is the second-order rate constant that governs catalysis at low substrate concentration. For B1, in the series “purified protein [2]”, the Km was determined as 400 µM, the kcat amounted to 5.4 s⁻¹ and the kcat/Km was determined as 14000 M⁻¹ s⁻¹. Besides, in series [3], the Km stood at 660 µM, the kcat amounted to 0.23 s⁻¹ and the kcat/Km came out at 350 M⁻¹ s⁻¹. Further, in the series “purified protein [4]”, the Km was found to be 400 µM, the kcat was 14 s⁻¹ and the kcat/Km was 36000 M⁻¹ s⁻¹.
